Laboratory results as given in PMC8377413.

Assays:
[1] = target: OsPPR676 (recombinant, Expi293) (rice); assay: MST; Monolith NT.115; 100 nM target protein labelled with His-Tag Labeling Kit RED-tris-NTA 2nd generation, serial dilutions of unlabelled ligand; PBS with 0.05% Tween 20; 35% MST power, 60% LED power, 24°C
[2] = target: Osj10gBTF3 (recombinant, Expi293) (rice); assay: as above

Kd [1] [µM]	Kd [2] [µM]	Substance
15.1	9.8	OsCpn60 (recombinant, Expi293) (natural protein)
–	24.3	OsPPR676 (recombinant, Expi293) (natural protein)
